Measurements reported in patent publication EP2495257A2 (Abbott Laboratories, dated 2012).
Each block holds one binder with its values, some of them ahead of it.

What was measured:
human IL-12 = target: T1, human IL-12 (human, UniProt P29459 23-219; P29460 23-328); experiment: cell-based or functional assay
T1 sequence (looked up) 1: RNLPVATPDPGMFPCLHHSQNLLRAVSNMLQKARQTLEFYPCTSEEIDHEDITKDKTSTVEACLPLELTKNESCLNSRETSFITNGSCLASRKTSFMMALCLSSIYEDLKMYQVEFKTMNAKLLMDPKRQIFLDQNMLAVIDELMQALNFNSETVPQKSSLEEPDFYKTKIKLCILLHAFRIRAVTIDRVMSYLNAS
T1 sequence (looked up) 2: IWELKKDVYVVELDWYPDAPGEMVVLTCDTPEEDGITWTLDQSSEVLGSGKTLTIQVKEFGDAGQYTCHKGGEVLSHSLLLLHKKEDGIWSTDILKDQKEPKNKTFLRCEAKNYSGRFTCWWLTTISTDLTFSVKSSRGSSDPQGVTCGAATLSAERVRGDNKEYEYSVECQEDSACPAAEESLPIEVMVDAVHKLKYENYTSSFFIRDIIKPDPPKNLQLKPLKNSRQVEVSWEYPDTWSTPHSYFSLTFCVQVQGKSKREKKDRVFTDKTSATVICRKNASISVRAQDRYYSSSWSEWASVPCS

human IL-18 [1] = target: T2, human IL-18 (human, UniProt Q14116 37-193); experiment: cell-based or functional assay
human IL-18 [2] = target: T2, human IL-18; experiment: SPR (Biacore)

IC50 (M), IL-12-induced IFN-γ production by PHA blast cells (human IL-12): 5e-12 M
B1: ABT-874 (fully human anti-human IL-12p40 mAb) (antibody, V domains shown)
VH: QVQLVESGGGVVQPGRSLRLSCAASGFTFSSYGMHWVRQAPGKGLEWVAFIRYDGSNKYYADSVKGRFTISRDNSKNTLYLQMNSLRAEDTAVYYCKTHGSHDNWGQGTMVTVSS
VL: QSVLTQPPSVSGAPGQRVTISCSGSRSNIGSNTVKWYQQLPGTAPKLLIYYNDQRPSGVPDRFSGSKSGTSASLAITGLQAEDEADYYCQSYDRYTHPALLFGTGTKVTVLG

IC50 (M), KG-1 bioassay (IL-18-induced IFN-γ production) (human IL-18 [1]): 3e-10 M
B2: ABT-325 (fully human anti-human IL-18 mAb) (antibody, V domains shown)
VH: EVQLVQSGTEVKKPGESLKISCKGSGYTVTSYWIGWVRQMPGKGLEWMGFIYPGDSETRYSPTFQGQVTISADKSFNTAFLQWSSLKASDTAMYYCARVGSGWYPYTFDIWGQGTMVTVSS
VL: not shown

Potency (IC50, M), KG-1 bioassay (human IL-18 [1]): 7.8e-11 M
B3: DVD1812LL (anti-IL-18/IL-12 DVD-Ig, 18-12-C, long linker) (bispecific antibody, human IgG1, kappa)
heavy: not shown
light: EIVMTQSPATLSVSPGERATLSCRASESISSNLAWYQQKPGQAPRLFIYTASTRATDIPARFSGSGSGTEFTLTISSLQSEDFAVYYCQQYNNWPSITFGQGTRLEIKRTVAAPSVFIFPPQSVLTQPPSVSGAPGQRVTISCSGSRSNIGSNTVKWYQQLPGTAPKLLIYYNDQRPSGVPDRFSGSKSGTSASLAITGLQAEDEADYYCQSYDRYTHPALLFGTGTKVTVLGTVAAPSVFIFPPSDEQLKSGTASVVCLLNNFYPREAKVQWKVDNALQSGNSQESVTEQDSKDSTYSLSSTLTLSKADYEKHKVYACEVTHQGLSSPVTKSFNRGEC

Potency (IC50, M), KG-1 bioassay (human IL-18 [1]): 4e-11 M
Kd (human IL-18 [2]): 0.11 nM
B4: DVD1812SL (anti-IL-18/IL-12 DVD-Ig, 18-12-C, short linker) (bispecific antibody, human IgG1, kappa)
heavy: not shown
light: EIVMTQSPATLSVSPGERATLSCRASESISSNLAWYQQKPGQAPRLFIYTASTRATDIPARFSGSGSGTEFTLTISSLQSEDFAVYYCQQYNNWPSITFGQGTRLEIKRTVAAPQSVLTQPPSVSGAPGQRVTISCSGSRSNIGSNTVKWYQQLPGTAPKLLIYYNDQRPSGVPDRFSGSKSGTSASLAITGLQAEDEADYYCQSYDRYTHPALLFGTGTKVTVLGTVAAPSVFIFPPSDEQLKSGTASVVCLLNNFYPREAKVQWKVDNALQSGNSQESVTEQDSKDSTYSLSSTLTLSKADYEKHKVYACEVTHQGLSSPVTKSFNRGEC
notes: also called DVD1812HC-SL / DVD1812LC-SL
